The values below come from patent US20260144882A1 (BIO THERA SOLUTIONS, published 2026).

Test [1] has as its target T1, human Nectin-4 extracellular antigen hNectin-4-His (human, UniProt Q96NY8 32-349).
T1 construct: C-terminal 8xHis tag included
T1 sequence: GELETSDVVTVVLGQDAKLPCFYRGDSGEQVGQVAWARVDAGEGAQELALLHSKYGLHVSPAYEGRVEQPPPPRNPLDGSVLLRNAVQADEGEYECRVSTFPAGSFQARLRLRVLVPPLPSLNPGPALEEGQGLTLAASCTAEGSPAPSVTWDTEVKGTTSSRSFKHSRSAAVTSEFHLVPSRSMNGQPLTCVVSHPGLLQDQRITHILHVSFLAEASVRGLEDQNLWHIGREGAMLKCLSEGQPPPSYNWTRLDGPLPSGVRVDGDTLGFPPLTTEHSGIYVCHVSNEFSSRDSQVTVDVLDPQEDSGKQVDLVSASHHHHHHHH
The test can be described thus: SPR, antibody on Protein A chip, 1:1 fit. An excerpt:
(§1) In this study, the affinity of the antibodies for the human Nectin-4 extracellular antigen was detected by surface plasmon resonance (SPR) technique (BIAcore: GE Healthcare, T200).
For orientation: In SPR one partner is held on a chip, and binding of the other changes the refractive index at the surface.

Test [2] concerns the target T2, monkey cNectin-4 protein (ACRO, NE4-C52H4) (cynomolgus monkey, UniProt A0A2K5WES1 32-349).
T2 construct: bought; construct not described; also called cynomolgus monkey Nectin-4
T2 sequence: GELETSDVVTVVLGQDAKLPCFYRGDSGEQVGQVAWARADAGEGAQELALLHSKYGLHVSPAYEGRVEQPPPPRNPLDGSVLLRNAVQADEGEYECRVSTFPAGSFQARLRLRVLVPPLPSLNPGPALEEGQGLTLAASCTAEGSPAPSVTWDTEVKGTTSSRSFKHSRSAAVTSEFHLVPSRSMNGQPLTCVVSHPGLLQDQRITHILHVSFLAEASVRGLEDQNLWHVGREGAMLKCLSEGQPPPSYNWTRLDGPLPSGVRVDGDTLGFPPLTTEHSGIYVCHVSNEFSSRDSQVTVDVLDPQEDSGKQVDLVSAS
The test can be described thus: ELISA, coated antigen. For orientation: ELISA stands for enzyme-linked immunosorbent assay.

The target in test [3] is T1, human Nectin-4 extracellular antigen …. The test can be described thus: ELISA, coated antigen.
For test [4], the target named is T3, mouse mNectin-4 protein (ACRO, NE4-M52H3) (mouse, UniProt Q8R007 31-347).
T3 construct: bought; construct not described; also called mouse Nectin-4
T3 sequence (looked up): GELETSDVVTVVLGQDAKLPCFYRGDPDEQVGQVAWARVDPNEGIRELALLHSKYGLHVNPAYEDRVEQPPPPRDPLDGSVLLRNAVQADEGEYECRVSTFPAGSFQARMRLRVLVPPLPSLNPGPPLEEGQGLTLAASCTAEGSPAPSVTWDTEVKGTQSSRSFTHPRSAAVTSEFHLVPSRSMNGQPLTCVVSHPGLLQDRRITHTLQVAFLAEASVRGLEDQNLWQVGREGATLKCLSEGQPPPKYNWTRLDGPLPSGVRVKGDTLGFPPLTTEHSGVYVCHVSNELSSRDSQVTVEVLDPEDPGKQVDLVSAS
The experiment in a line: ELISA, coated antigen.

For test [5], the target named is T1, human Nectin-4 extracellular antigen …. The test can be described thus: SPR, antibody on Protein A chip, hNectin-4-His analyte, 1:1 fit.
Source text: as §1

For test [6] the target is unchanged. The experiment in a line: ELISA, coated hNectin-4-His. The text has this: (§2) The binding activity of the antibodies was detected by ELISA.
The target in test [7] is T4, hNectin-2 (ACRO, PV2-H52E2) (human, UniProt Q92692 32-360).
T4 construct: bought; construct not described
T4 sequence (looked up): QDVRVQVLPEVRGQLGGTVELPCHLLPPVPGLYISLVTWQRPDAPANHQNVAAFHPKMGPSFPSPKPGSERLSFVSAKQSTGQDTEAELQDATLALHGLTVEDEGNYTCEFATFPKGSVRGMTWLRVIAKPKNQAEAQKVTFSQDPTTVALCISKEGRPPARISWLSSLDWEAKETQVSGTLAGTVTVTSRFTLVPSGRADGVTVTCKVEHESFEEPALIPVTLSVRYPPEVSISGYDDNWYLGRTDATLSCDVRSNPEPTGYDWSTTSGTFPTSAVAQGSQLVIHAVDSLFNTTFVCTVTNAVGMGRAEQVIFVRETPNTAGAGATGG
The experiment in a line: ELISA, coated antigen.
Source text: as §2
(§3) In this assay, the binding of different antibodies to human Nectin-4 homologous proteins hNectin-1 (ACRO, PV1-H5223), hNectin-2 (ACRO, PV2-H52E2), hNectin-3 (ACRO, PV3-H52E4), and hNectin-4-His was detected by ELISA to determine the specificity of the antibodies. For the methodology and procedures, see Example 4. Antigens of interest ([…]) were immobilized; after blocking, serially diluted antibodies (2-fold serially diluted from […]) were added, and HRP-labeled anti-human-Kappa secondary antibody was added for chromogenic reaction.

Test [8] has as its target T5, hNectin-1 (ACRO, PV1-H5223) (human, UniProt Q15223 31-334).
T5 construct: bought; construct not described
T5 sequence (looked up): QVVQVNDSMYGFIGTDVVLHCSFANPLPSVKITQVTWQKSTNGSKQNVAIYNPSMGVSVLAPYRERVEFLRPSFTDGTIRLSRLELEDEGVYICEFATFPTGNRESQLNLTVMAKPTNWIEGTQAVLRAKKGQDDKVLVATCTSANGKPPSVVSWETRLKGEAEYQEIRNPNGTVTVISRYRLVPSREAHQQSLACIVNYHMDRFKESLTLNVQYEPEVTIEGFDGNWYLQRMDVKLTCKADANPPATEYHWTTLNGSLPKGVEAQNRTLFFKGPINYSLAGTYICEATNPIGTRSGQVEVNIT
The test can be described thus: ELISA, coated antigen.
Source text: as §2, §3

Test [9] deals with T1, human Nectin-4 extracellular antigen …. The test can be described thus: ELISA, coated antigen.
Source text: as §2, §3
This is another data set of the same source.

B1: antibody 1G8 (antibody, human IgG1, kappa, V domains shown)
VH: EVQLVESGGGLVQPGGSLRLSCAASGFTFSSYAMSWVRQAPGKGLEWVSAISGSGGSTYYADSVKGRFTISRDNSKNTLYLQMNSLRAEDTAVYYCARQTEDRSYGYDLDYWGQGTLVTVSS
VL: DIQMTQSPSSLSASVGDRVTITCRASQGISSYLAWYQQKPGKAPKLLIYAASSLQSGVPSRFSGSGSGTDFTLTISSLQPEDFATYYCQQHYTTPPTFGQGTKVEIKR
With B1, the Kd in test [1] and in test [5] was 4.97 nM throughout. Also, the koff in test [1] and in [5] was 0.003 s⁻¹ in each case. Further, the kon in test [1] and in test [5] was 605000 M⁻¹ s⁻¹ in each case. For the same molecule, the EC50 (usually the concentration giving half of the maximal effect) in test [2] came out at 0.036 µg/mL; in [3], 0.043 µg/mL; in [4], 0.037 µg/mL; in test [6], 0.068 µg/mL; in test [9], 0.041 µg/mL. Moreover, the binding result in test [7] and in test [8] was “no binding (tested: 2-fold serially diluted from 2 g/mL)” in each case.

B2: antibody 1F3 (antibody, human IgG1, kappa, V domains shown)
VH: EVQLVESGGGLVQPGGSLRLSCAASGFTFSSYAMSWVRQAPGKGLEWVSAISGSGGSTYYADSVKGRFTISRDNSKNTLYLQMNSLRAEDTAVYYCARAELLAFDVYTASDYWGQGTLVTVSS
VL: B1 VL
For B2, the Kd (in general, the equilibrium constant for the complex coming apart) in test [1] is 2.49 nM; in test [5] it was 3.21 nM. Further, the results for the off-rate constant (koff) in test [1] and in test [5] were 0.00195 s⁻¹ and 0.00261 s⁻¹, respectively. The kon (usually the second-order rate constant of association) worked out at 785000 M⁻¹ s⁻¹ in test [1] and 813000 M⁻¹ s⁻¹ in test [5]. Also, the EC50 in test [2] was determined as 0.034 µg/mL; in test [3], 0.036 µg/mL; in test [4], 0.034 µg/mL; in test [6], 0.041 µg/mL; in test [9], 0.04 µg/mL. Further, the binding result in test [7] and in [8] was “no binding (tested: 2-fold serially diluted from 2 g/mL)” in each case.

B3: antibody 10F4 (antibody, human IgG1, kappa, V domains shown)
VH: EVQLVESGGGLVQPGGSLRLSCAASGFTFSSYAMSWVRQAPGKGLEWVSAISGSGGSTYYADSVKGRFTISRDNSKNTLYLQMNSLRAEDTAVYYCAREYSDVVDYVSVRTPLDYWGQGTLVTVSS
VL: B1 VL
Regarding B3, the Kd was 3.23 nM in test [1] and 2.77 nM in test [5]. For the same molecule, the results for the koff in test [1] and in test [5] were 0.00121 s⁻¹ and 0.00103 s⁻¹, respectively. The kon came to 375000 M⁻¹ s⁻¹ in test [1] and 373000 M⁻¹ s⁻¹ in test [5]. Besides, the EC50 stood at 0.041 µg/mL in test [2]; 0.041 µg/mL in test [3]; 0.041 µg/mL in test [4]; 0.038 µg/mL in test [6]; 0.045 µg/mL in test [9]. The binding result in test [7] and in test [8] was “no binding (tested: 2-fold serially diluted from 2 g/mL)” each time.
